Measurements as given in patent US20240287172A1 (SCIRHOM, published 2024).

What was measured:
Test in all cases: FACS, MEF-DKO cells, 3 µg/ml
hiR2-FL-D538L-T7 = biological target: T1, hiR2-FL-D538L-T7 (human, UniProt Q6PJF5 1-856)
T1 sequence: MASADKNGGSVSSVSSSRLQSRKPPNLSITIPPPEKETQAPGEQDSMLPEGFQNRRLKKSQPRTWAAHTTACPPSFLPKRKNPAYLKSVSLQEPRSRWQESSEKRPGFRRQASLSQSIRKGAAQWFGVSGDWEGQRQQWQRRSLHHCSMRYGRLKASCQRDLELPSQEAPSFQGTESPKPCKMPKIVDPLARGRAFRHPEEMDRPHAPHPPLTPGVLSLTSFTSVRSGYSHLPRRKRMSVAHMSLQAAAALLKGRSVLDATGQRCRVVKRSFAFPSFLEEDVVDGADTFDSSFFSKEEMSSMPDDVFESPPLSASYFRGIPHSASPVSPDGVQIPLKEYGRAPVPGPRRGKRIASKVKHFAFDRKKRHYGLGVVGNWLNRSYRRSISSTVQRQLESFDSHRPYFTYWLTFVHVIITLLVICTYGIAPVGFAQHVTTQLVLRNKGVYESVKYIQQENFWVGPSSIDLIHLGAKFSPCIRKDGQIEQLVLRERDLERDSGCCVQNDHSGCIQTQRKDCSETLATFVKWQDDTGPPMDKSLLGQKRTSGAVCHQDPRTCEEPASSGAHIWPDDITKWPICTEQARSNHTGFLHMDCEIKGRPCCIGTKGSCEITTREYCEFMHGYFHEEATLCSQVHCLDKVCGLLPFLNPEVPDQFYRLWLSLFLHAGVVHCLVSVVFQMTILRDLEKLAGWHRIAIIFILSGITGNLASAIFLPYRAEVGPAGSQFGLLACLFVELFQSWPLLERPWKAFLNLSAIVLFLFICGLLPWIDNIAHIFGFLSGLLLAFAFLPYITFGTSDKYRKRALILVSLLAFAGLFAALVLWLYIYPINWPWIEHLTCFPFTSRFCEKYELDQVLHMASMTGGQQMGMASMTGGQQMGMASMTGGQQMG

hiR2-FL-D515E-T7 = biological target: T2, hiR2-FL-D515E-T7 (human, UniProt Q6PJF5 1-856)
T2 sequence: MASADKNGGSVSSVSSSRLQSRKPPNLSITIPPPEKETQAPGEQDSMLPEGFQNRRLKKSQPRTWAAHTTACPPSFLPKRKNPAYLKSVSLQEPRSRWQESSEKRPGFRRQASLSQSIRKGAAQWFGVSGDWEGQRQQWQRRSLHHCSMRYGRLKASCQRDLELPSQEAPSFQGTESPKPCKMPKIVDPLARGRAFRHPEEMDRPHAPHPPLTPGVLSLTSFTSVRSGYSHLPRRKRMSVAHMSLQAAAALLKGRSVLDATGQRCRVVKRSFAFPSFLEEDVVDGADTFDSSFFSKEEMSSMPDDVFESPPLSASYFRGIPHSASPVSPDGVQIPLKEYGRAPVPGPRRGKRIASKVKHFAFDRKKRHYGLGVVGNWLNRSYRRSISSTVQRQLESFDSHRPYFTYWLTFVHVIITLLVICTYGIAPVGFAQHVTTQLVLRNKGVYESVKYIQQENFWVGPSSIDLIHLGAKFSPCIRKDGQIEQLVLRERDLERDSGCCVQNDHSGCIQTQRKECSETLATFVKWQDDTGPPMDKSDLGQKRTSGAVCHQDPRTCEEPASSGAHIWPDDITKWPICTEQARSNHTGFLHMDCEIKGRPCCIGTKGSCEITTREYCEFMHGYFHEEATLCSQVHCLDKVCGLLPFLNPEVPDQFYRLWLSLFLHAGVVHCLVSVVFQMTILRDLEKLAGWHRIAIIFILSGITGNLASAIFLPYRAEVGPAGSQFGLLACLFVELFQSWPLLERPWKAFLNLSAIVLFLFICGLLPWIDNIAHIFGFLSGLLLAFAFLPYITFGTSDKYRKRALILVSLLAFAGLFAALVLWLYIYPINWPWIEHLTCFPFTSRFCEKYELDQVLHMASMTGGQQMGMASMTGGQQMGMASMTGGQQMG

hiR2-FL-S545F-T7 = biological target: T3, hiR2-FL-S545F-T7 (human, UniProt Q6PJF5 1-856)
T3 sequence: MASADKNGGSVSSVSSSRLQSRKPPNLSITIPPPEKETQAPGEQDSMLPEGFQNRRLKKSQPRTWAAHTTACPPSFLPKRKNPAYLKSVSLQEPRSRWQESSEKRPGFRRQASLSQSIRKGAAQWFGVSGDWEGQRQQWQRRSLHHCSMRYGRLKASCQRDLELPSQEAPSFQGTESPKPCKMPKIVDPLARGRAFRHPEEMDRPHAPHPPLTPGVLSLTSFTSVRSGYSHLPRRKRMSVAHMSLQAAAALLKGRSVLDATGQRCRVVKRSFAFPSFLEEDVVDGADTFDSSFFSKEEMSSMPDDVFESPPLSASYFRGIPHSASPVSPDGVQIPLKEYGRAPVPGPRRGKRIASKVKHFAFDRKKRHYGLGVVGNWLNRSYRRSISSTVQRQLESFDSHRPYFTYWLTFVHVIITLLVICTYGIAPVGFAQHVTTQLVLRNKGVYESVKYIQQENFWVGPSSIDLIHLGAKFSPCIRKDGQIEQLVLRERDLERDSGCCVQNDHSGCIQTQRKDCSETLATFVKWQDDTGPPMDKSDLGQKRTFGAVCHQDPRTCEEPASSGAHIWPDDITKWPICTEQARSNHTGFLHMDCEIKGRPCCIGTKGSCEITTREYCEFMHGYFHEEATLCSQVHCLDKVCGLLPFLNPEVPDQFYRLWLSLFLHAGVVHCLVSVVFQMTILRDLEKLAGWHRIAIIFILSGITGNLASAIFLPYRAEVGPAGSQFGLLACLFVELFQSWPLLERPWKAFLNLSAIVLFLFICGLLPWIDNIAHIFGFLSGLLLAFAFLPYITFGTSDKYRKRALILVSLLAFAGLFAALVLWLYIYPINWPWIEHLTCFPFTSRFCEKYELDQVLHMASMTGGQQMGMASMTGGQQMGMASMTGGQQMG

Measured: loss of binding vs wild type

B1: antibody 48 (antibody, V domains shown)
VH: QVQLQQSGTELVRPGTSVKVSCKASGYAFTNYLIEWVKQRPGQGLEWIGVINPGSGFTKYNEKFKGKATLTADKSSSTVYMHLSSLTSEDSAVYFCARGLYRAMDYWGQGTSVTVSS
VL: DIQMTQSPASQSASLGESVTITCLASQTIATWLAWYQQKPGKSPQLLIYGATTLADGVPSRFSGGGSGTKFSFKISSLQAEDFVSYYCQQLYSTPYTFGGGTKLEIK
notes: mouse IgG, kappa light chain; also called clone #48; purified antibody 48
≥ 30%: all assays above
